Holding throughout (experiment): BLI
Assay [1] addresses PI4KA-TTC7A-FAM126A (1–308) complex (UniProt P42356;Q9ULT0;Q9BYI3).
Assay [2] deals with TTC7B-FAM126A (1–308) heterodimer (UniProt Q86TV6;Q9BYI3).
The target in assay [3] is TTC7B-FAM126B (1–308) heterodimer (UniProt Q86TV6;Q8IXS8).
Assay [4] has as its target TTC7A-FAM126A (1–308) heterodimer (UniProt Q9ULT0;Q9BYI3).
For assay [5], the target named is TTC7A-FAM126B (1–308) heterodimer (UniProt Q9ULT0;Q8IXS8).
Assay [6] has as its target PI4KA-TTC7B-FAM126A (1–308) complex (UniProt P42356;Q86TV6;Q9BYI3).

B1: His-tagged MBP-EFR3A (721–791) (domain or fragment)
chain: SNTEEITFEALKKAIDTSGMEEQEKEKRRLVIEKFQKAPFEEIAAQCESKANLLHDRLAQILELTIRPPPS
Regarding B1, the Kd in assay [1] was 0.34 ± 0.13 nM; in assay [2], 0.041 ± 0.025 nM; in assay [3], roughly 0.3 nM; in assay [4] it was roughly 0.3 nM; in assay [5], roughly 0.3 nM; in assay [6], 0.043 ± 0.014 nM.

The values are drawn from PMC12747262 (bioRxiv, 2025).
